Consider one molecule from publication PMC8622166.

The target in one assay is RAC2 (human), P15153. The experiment in a line: stopped-flow fluorimetry; kon from kobs against increasing GDI concentrations mixed with 0.2 µM mdGDP-bound RHO GTPase; koff by displacement with excess unlabeled GDP-bound RHO protein; Kd = koff/kon; 25 °C, 30 mM Tris/HCl pH 7.5, 10 mM K2HPO4/KH2PO4 pH 7.5, 5 mM MgCl2, 3 mM DTT. As to conditions: remark: other sources report otherwise.

The target of a further assay is RAC3 (human), P60763. Described as above. Particulars: remark: other sources report otherwise.

B1: GDI2, P52566 1-201 (natural protein)
chain: MTEKAPEPHVEEDDDDELDSKLNYKPPPQKSLKELQEMDKDDESLIKYKKTLLGDGPVVTDPKAPNVVVTRLTLVCESAPGPITMDLTGDLEALKKETIVLKEGSEYRVKIHFKVNRDIVSGLKYVQHTYRTGVKVDKATFMVGSYGPRPEEYEFLTPVEEAPKGMLARGTYHNKSFFTDDDKQDHLSWEWNLSIKKEWTE
In turn, B1 gave a Kd in the assay with RAC2 (human), P15153 of 18.8 µM. In the assay with RAC3 (human), P60763, this molecule showed a fold faster kon than GDI1 of more than 10 fold and a fold slower koff than GDI1 of less than 4 fold.
